Test results as given in publication PMC2845550, “Heterologous expression of leader-less pga gene in Pichia pastoris: intracellular production of prokaryotic enzyme” (BMC Biotechnology, 2010).

Experiments:
purified protein [1] = substrate: CC1(C)S[C@@H]2[C@H](NC(=O)Cc3ccccc3)C(=O)N2[C@H]1C(=O)O; assay: purified protein; type: biochemical, Escherichia coli; settings: 37 °C, substrate 5-100 μM
purified protein [2] = substrate: O=C(Cc1ccccc1)Nc1ccc([N+](=O)[O-])c(C(=O)O)c1; assay: purified protein; type: biochemical, Escherichia coli; settings: 50 mM phosphate buffer, pH 8, 37 °C, substrate 7-2000 μM

B1: PGAEc (Escherichia coli) (protein)
chain 1: EQSSSEIKIVRDEYGMPHIYANDTWHLFYGYGYVVAQDRLFQMEMARRSTQGTVAEVLGKDFVKFDKDIRRNYWPDAIRAQIAALSPEDMSILQGYADGMNAWIDKVNTNPETLLPKQFNTFGFTPKRWEPFDVAMIFVGTMANRFSDSTSEIDNLALLTALKDKYGVSQGMAVFNQLKWLVNPSAPTTIAVQESNYPLKFNQQNSQTA
chain 2: SNMWVIGKSKAQDAKAIMVNGPQFGWYAPAYTYGIGLHGAGYDVTGNTPFAYPGLVFGHNGVISWGSTAGFGDDVDIFAERLSAEKPGYYLHNGKWVKMLSREETITVKNGQAETFTVWRTVHGNILQTDQTTQTAYAKSRAWDGKEVASLLAWTHQMKAKNWQEWTQQAAKQALTINWYYADVNGNIGYVHTGAYPDRQSGHDPRLPVPGTGKWDWKGLLPFEMNPKVYNPQSGYIANWNNSPQKDYPASDLFAFLWGGADRVTEIDRLLEQKPRLTADQAWDVIRQTSRQDLNLRLFLPTLQAATSGLTQSDPRRQLVETLTRWDGINLLNDDGKTWQQPGSAILNVWLTSMLKRTVVAAVPMPFDKWYSASGYETTQDGPTGSLNISVGAKILYEAVQGDKSPIPQAVDLFAGKPQQEVVLAALEDTWETLSKRYGNNVSNWKTPAMALTFRANNFFGVPQAAAEETRHQAEYQNRGTENDMIVFSPTTSDRPVLAWDVVAPGQSGFIAPDGTVDKHYEDQLKMYENFGRKSLWLTKQDVEAHKESQEVLHVQR
notes: mature periplasmic heterodimer cut from 846-residue preproprotein; homologous expression in E. coli RE3(pKA18), untagged
In the case of B1, the Km (purified protein [1]) is reported as 34 µM, the kcat (purified protein [1]) is reported as 13.6 s⁻¹ and the Km (purified protein [2]) is reported as 28 µM. The Vmax (purified protein [2]) was 15000 µM/min and the kcat (purified protein [2]) was 1.6 s⁻¹.
